The target of assay [1] is T1, Human CD1d/β2M (human, UniProt P15813 20-301; P61769 21-119).
T1 construct: also called hCD1d; recombinant human CD1d
Kind of assay: SPR, transfection supernatant.

The target of assay [2] is T1, Human CD1d/β2M. Kind of assay: SPR.
Assay [3] deals with T2, Human CD1d on cells (human, UniProt P15813 20-335).
T2 sequence (looked up): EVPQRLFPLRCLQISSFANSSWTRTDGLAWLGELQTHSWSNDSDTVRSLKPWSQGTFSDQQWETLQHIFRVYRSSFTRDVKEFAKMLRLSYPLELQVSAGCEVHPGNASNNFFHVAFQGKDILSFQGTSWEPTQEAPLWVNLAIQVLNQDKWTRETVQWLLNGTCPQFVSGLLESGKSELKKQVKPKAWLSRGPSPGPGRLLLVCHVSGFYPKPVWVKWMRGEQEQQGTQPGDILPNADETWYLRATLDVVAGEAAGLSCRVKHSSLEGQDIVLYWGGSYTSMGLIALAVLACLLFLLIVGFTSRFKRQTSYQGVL
Kind of assay: cell-based or functional assay.

Assay [4] has as its target T2, Human CD1d on cells. Kind of assay: cell-based or functional assay. This is another data set of the same source.

Read-outs that look alike come from different tables or passages of the source.

B1: 401.11.18 (antibody, V domains shown)
VH: QVQLVGSGGGLVKPGRSLRLSCAASGFTFDDYAMHWVRQAPGKGLEWVATIIWNSAIIGYADSVKGRFIVSRDNAKNSLYLQMNSLRAEDTALYYCAKDMCSSSGCPDGYFDSWGQGTLVTVSS
VL: DIQMTQSPSSVSASVGDRVTITCRASQHISSWLAWYQQKPGKAPNLLIYAASSLQSGVSSRFSGSGSGTDFTLTISSLQPEDFATYYCQQANRFPLTFGGGTKLEIK
B1 registered an equilibrium dissociation constant (Kd) in assay [1] of 9.97 nM.

B2: 401.11.177 (antibody, V domains shown)
VH: QVQLVGSGGGLVKPGRSLRLSCAASGFTFDDYAMHWVRQAPGKGLEWVATIIWNSAIIGYADSVKGRFIVSRDNAKNSLYLQMNSLRAEDTALYYCAKDICSSGGCPDGYFDSWGQGTLVTVSS
VL: DIQMTQSPSSVSASVGDRVTITCRASQHISSWLAWYQQKPGKAPKLLIYAASSLQSGVPSRFSGSGSGTDFTLTISSLQPEDFATYYCQQANRFPLTFGGGTKLEIK
As for B2, in assay [2], binding was characterised by a dissociation constant (Kd) of 0.507 nM. For the same molecule, in assay [3], the “NKT IFN-γ EC50 (moDC)” value is 7.56 ng/mL, the “NKT IL-4 EC50 (moDC)” value was 0.731 ng/mL, the “NKT IL-5 EC50 (moDC)” value worked out at 1.4 ng/mL and the “NKT IL-13 EC50 (moDC)” value stood at 1.27 ng/mL.

B3: 401.11.154 (antibody, IgG4, V domains shown)
VH: QVQLVGSGGGLVKPGRSLRLSCAASGFTFDDYAMHWVRQAPGKGLEWVATIIWNSAIIGYADSVKGRFIVSRDNAKNSLYLQMNSLRAEDTALYYCAKDMCSSSGCPDGYFDSWGQGTLVTVSS
VL: DIQMTQSPSSVSASVGDRVTITCRASQHISSWLAWYQQKPGKAPKLLIYAASSLQSGVPSRFSGSGSGTDFTLTISSLQPEDFATYYCQQANRFPLTFGGGTKLEIKR
notes: IgG4 (S228P)
With B3, binding in assay [2] was put at a Kd of 1.77 nM. For the same molecule, in assay [4], the “NKT IL-4 EC50 (moDC)” value turned out to be 4.16 ng/mL and the “NKT IL-13 EC50 (moDC)” value was determined as 17.7 ng/mL.

B4: 401.11.15 (antibody, V domains shown)
VH: EVQLVESGGGLVKPGRSLRLSCAASGFTFDDYAMHWVRQAPGKGLEWVATIIWNSAIIGYADSVKGRFIVSRDNAKNSLYLQMNSLRAEDMALYYCAKDMCSSSGCPDGYFDSWGQGTLVTVSS
VL: DIQMTQSPSSVSASVGDRVTITCRASQHISSWLAWYQQKPGKAPNLLIYAASSLQSGVSSRFSGSGSGTDFTLTISSLQPEDFATYYCQQANRFPLTFGGGTKLEIK
As to B4, binding in assay [1] was put at a Kd of 0.507 nM. That is a sub-nanomolar value.

B5: 401.11.178 (antibody, V domains shown)
VH: QVQLVGSGGGLVKPGRSLRLSCAASGFTFDDYAMHWVRQAPGKGLEWVATIIWNSAIIGYADSVKGRFIVSRDNAKNSLYLQMNSLRAEDTALYYCAKDLCSSGGCPDGYFDSWGQGTLVTVSS
VL: DIQMTQSPSSVSASVGDRVTITCRASQHISSWLAWYQQKPGKAPKLLIYAASSLQSGVPSRFSGSGSGTDFTLTISSLQPEDFATYYCQQANRFPLTFGGGTKLEIK
Molecule B5 came in with a Kd in assay [2] of 0.468 nM. Also, in assay [3], the “NKT IFN-γ EC50 (moDC)” value was 15.1 ng/mL, the “NKT IL-4 EC50 (moDC)” value came out at 0.969 ng/mL, the “NKT IL-5 EC50 (moDC)” value stood at 1.38 ng/mL and the “NKT IL-13 EC50 (moDC)” value worked out at 1.76 ng/mL.

B6: 401.11.16 (antibody, V domains shown)
VH: EVQLVESGGGLVQPGRSLRLSCAASGFTFDDYAMHWVRQAPGKGLEWVATIIWNSAIIGYADSVKGRFIVSRDNAKNSLYLQMNSLRAEDMALYYCAKDMCSSSGCPDGYFDSWGQGTLVTVSS
VL: DIQMTQSPSSVSASVGDRVTITCRASQHISSWLAWYQQKPGKAPNLLIYAASSLQSGVSSRFSGSGSGTDFTLTISSLQPEDFATYYCQQANRFPLTFGGGTKLEIK
For the molecule B6, in assay [1], the binding result is “no binding”.

B7: 401.11.21 (antibody, V domains shown)
VH: EVQLVESGGGLVKPGRSLRLSCAASGFTFDDYAMHWVRQAPGKGLEWVATIIWNSAIIGYADSVKGRFIVSRDNAKNSLYLQMNSLRAEDMALYYCAKDMCSSSGCPDGYFDSWGQGTLVTVSS
VL: DIQMTQSPSSVSASVGDRVTITCRASQHISSWLAWYQQKPGKAPKLLIYAASSLQSGVSSRFSGSGSGTDFTLTISSLQPEDFATYYCQQANRFPLTFGGGTKLEIK
The molecule B7 showed a Kd in assay [1] of 0.951 nM.

B8: 401.11.160 (antibody, IgG4, V domains shown)
VH: EVQLVESGGGLVQPGRSLRLSCAASGFTFDDYAMHWVRQAPGKGLEWVATIIWNSAIIGYADSVKGRFIVSRDNAKNSLYLQMNSLRAEDMALYYCAKDMCSSGGCPDGYFDSWGQGTLVTVSS
VL: DIQMTQSPSSVSASVGDRVTITCRASQHISSWLAWYQQKPGKAPNLLIYAASSLQSGVPSRFSGSGSGTDFTLTISSLQPEDFATYYCQQANRFPLTFGGGTKLEIKR
notes: IgG4 (S228P)
For the molecule B8, the affinity in assay [2], expressed as Kd, was 0.109 nM. In assay [4], the “NKT IL-4 EC50 (moDC)” value was 1.56 ng/mL and the “NKT IL-13 EC50 (moDC)” value came to 6.52 ng/mL.

The values above are taken from patent US20140286957A1 (Teva, published 2014).
